Measured values from publication doi:10.1101/2023.07.25.550441 (bioRxiv, 2023).

Target: Homo sapiens ubiquitin (human, UniProt P0CG48 1-76)
Assay: SPR

Kd: 37.9 mM
B1: S. cerevisiae UEV (domain or fragment)
chain: AVVNWLFKVIQPIYNDGRTTFHDSLALLDNFHSLRPRTRVFTHSDGTPQLLLSIYGTISTGEDGSSPHSIPVIMWVPSMYPVKPPFISINLENFDMNTISSSLPIQEYIDSNGWIALPILHCWDPAAMNLIMVVQELMSLLHEPPQDQAP
